Assay results as given in patent US12319742.

Columns and labels:
[1] = target: human TNFRSF25 over-expressed on CHOK1 cells (cDNA sequence NP_683866) (human) (UniProt Q93038); test: flow cytometry competition (upper panel); CHOK1-TNFRSF25+ cells with antibody 30 min at 4 C, then biotinylated human TL1A-Fc at 156 nM, PE-streptavidin
[2] = target: human TNFRSF25 over-expressed on CHOK1 cells (cDNA sequence NP_683866) (human) (UniProt Q93038); test: flow cytometry on CHOK1-TNFRSF25+ cells (lower panel), 1 h at 4 C, APC anti-human Fc
[3] = target: human TNFRSF25 over-expressed on CHOK1 cells (cDNA sequence NP_683866) (human) (UniProt Q93038); test: flow cytometry on CHOK1-TNFRSF25+ cells; APC anti-human Fc

Row | Binder | IC50 [1] [nM] | EC50 (read off the curve) [2] [nM] | EC50 [3] [nM]
1 | NH24-35 (antibody) (antibody, V domains shown) VH: EVQLVESGGGSVQPGGSLRLSCAASGFTFSSYGMSWIRQAPGKGLEWVSYISSSGGHTYYADSVKGRFTISRDNAKNSLYLQMNSLRAEDTAVYYCARYSGAFDHWGQGTLVTVSS VL: DIVMTQSPSSLSASVGDRVTITCQASQDITNYLSWYQQKPGKAPKLLINDASNLETGVPSRFSGSGSGTDFTFTISSLQPEDIATYYCQQYDTLPITFGQGTRLEIKR | 4 | – | –
2 | NH24-162 (antibody, V domains shown) VH: EVQLVESGGGSVQPGGSLRLSCAASGFTFSSYGMSWVRQAPGKGLEWISYISSSGGHTYYADSVKGQFTISRDNAKNSLYLQMNSLRAEDTAVYYCARGSGSFDYWGQGTLVTVSS VL: DIVMTQSPSSLSASVGDRVTITCQASQDISNYLSWYQQKPGKAPKLLISDASNLETGVPSRFSGSGSGTDFTFTISSLQPEDIATYYCQQYDNLPITFGQGTRLEIKR | 49 | – | –
3 | NH24-72 (antibody, V domains shown) VH: EVQLVESGGGSVQPGGSLRLSCAASGFTFSSYGMNWIRQAPGKGLEWITYISSSGGHTYYADSVKGRFTISRDNAKNSLYLQMNSLRAEDTAVYYCARGQGPFEYWGQGTLVTVSS VL: DIVMTQSPSSLSASVGDRVTITCQASQDISNYLSWYQQKPGKAPKLLINDASNLETGVPSRFSGSGSGTDFTFTISSLQPEDIATYYCQQYDNLPITFGQGTRLEIKR | 8 | – | –
4 | SL-061mut213 (antibody, human IgG1, kappa, V domains shown) VH: QVQLQQSGPGLVKPSQTLSLTCAISGDSVSSYSAAWNWIRQSPSRGLEWLGRTYYRSKWFNDYAVSVKSRITINPDTSKNQFSLQLNSVTPEDTAVYYCARDYYGSESYYNRGYYYYGLDVWGQGTTVTVSS VL: AIQLTQSPSSLSASVGDRVTITCRASPSISSALAWYQQKPGKAPKLLMYDESSQEGSVPSRFSGSGSGTDFTLTISSLQPEDFATYYCQQFNEYPLTFGGGTKVEIKR | – | 0.003 | –
5 | NH46 (whole antibody) (antibody, human IgG1, kappa, V domains shown) VH: QVQLVQSGSEVKKPGASVRVSCKVSGSTVKELSMHWVRQAPGKGLEWMGGYDPEDGESIFAQKFQGRVNMTEDRSTDTAYMELSSLRSEDTAVYYCATDLNWEDAFDVWGQGTMVTVSS VL: QSVLTQPPSVSAAPGQKVTISCSGSGSNIGNYYVAWYQQFPGTAPKLLIYDNNKRPSGIPDRFSGSKSGTSATLGITGLQTGDEADYYCGTWDTSLTAGDIYVFGTGTKVTVLR | 49 | – | 0.05
